Laboratory results as given in US20170355744A1 (published 2017).
Several values for one entry are separate records, joined by “and”; a condition that tells them apart may be missing. Equal entries are not always repeated. Where two headings read alike, the source gives them in different places.

Assays:
[1] = biological target: T1, CI-MPR receptor on human MPS IIIB fibroblasts (human), P11717; test: cell-based or functional assay
[2] = biological target: T1, CI-MPR receptor on human MPS IIIB …; test: cell-based or functional assay; remark: listed apart in the source
[3] = biological target: T2, fragment of the IGFIIR involved with IGF-II binding (domains 10-13, named protein 1288) (UniProt P11717 1367-1989); test: IGF2R competitive binding assay, displacement of 8 nM biotinylated IGF-II from plate-coated IGFIIR domains 10-13
T2 construct: domain: domains 10-13; Coated on the plate at 0.5 ug/well; also called IGF2R
T2 sequence (P11717 1367-1989 limits assumed): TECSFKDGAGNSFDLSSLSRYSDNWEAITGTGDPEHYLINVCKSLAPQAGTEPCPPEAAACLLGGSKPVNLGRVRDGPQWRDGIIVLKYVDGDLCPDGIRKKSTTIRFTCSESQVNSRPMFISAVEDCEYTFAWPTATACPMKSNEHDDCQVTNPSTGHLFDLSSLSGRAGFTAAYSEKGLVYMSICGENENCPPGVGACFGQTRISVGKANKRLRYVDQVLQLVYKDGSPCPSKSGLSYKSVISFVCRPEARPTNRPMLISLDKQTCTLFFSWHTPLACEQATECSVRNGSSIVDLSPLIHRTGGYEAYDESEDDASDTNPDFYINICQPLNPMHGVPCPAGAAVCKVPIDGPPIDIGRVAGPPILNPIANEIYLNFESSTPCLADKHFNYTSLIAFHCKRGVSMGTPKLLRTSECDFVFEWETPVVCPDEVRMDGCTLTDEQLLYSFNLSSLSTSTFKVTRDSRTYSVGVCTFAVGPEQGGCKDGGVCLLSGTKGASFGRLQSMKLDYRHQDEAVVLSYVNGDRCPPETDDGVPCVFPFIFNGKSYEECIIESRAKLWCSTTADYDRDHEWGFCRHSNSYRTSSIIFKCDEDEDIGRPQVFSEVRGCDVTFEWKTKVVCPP
Experimental: To measure the ability of the Naglu fusion protein constructs to bind to the IGF-II receptor a competitive binding assay is carried out. A fragment of the IGFIIR involved with IGF-II binding (domains 10-13, named protein 1288) is coated onto 96-well plates. Biotinylated IGF-II is incubated with the receptor in the presence of increasing amounts of competitors: either control IGF-II (non-biotinylated), or fusion protein sample (containing an IGF-II-derived GILT epitope tag). Receptor-bound biotinylated IGF-II is detected with streptavidin conjugated to horseradish peroxidase (HRP) and a chemiluminescent HRP substrate. The ability of the fusion protein to inhibit binding of biotinylated IGF-II to the IGFIIR is calculated from inhibition curves and reported as an IC₅₀ value (concentration required to achieve 50% binding inhibition).
For the assay, IGFIIR is coated in a white Reacti-bind plate (Pierce, Cat#437111) at 0.5 μg/well in a volume of 100 μl (69.6 nM/per well) in coating buffer. The plate is sealed and incubated overnight at room temperature. The plate is then washed 3× with wash buffer, blocked with blocking buffer and then washed again 3× with wash buffer (300 μl/well).

T1 sequence (P11717 41-2491): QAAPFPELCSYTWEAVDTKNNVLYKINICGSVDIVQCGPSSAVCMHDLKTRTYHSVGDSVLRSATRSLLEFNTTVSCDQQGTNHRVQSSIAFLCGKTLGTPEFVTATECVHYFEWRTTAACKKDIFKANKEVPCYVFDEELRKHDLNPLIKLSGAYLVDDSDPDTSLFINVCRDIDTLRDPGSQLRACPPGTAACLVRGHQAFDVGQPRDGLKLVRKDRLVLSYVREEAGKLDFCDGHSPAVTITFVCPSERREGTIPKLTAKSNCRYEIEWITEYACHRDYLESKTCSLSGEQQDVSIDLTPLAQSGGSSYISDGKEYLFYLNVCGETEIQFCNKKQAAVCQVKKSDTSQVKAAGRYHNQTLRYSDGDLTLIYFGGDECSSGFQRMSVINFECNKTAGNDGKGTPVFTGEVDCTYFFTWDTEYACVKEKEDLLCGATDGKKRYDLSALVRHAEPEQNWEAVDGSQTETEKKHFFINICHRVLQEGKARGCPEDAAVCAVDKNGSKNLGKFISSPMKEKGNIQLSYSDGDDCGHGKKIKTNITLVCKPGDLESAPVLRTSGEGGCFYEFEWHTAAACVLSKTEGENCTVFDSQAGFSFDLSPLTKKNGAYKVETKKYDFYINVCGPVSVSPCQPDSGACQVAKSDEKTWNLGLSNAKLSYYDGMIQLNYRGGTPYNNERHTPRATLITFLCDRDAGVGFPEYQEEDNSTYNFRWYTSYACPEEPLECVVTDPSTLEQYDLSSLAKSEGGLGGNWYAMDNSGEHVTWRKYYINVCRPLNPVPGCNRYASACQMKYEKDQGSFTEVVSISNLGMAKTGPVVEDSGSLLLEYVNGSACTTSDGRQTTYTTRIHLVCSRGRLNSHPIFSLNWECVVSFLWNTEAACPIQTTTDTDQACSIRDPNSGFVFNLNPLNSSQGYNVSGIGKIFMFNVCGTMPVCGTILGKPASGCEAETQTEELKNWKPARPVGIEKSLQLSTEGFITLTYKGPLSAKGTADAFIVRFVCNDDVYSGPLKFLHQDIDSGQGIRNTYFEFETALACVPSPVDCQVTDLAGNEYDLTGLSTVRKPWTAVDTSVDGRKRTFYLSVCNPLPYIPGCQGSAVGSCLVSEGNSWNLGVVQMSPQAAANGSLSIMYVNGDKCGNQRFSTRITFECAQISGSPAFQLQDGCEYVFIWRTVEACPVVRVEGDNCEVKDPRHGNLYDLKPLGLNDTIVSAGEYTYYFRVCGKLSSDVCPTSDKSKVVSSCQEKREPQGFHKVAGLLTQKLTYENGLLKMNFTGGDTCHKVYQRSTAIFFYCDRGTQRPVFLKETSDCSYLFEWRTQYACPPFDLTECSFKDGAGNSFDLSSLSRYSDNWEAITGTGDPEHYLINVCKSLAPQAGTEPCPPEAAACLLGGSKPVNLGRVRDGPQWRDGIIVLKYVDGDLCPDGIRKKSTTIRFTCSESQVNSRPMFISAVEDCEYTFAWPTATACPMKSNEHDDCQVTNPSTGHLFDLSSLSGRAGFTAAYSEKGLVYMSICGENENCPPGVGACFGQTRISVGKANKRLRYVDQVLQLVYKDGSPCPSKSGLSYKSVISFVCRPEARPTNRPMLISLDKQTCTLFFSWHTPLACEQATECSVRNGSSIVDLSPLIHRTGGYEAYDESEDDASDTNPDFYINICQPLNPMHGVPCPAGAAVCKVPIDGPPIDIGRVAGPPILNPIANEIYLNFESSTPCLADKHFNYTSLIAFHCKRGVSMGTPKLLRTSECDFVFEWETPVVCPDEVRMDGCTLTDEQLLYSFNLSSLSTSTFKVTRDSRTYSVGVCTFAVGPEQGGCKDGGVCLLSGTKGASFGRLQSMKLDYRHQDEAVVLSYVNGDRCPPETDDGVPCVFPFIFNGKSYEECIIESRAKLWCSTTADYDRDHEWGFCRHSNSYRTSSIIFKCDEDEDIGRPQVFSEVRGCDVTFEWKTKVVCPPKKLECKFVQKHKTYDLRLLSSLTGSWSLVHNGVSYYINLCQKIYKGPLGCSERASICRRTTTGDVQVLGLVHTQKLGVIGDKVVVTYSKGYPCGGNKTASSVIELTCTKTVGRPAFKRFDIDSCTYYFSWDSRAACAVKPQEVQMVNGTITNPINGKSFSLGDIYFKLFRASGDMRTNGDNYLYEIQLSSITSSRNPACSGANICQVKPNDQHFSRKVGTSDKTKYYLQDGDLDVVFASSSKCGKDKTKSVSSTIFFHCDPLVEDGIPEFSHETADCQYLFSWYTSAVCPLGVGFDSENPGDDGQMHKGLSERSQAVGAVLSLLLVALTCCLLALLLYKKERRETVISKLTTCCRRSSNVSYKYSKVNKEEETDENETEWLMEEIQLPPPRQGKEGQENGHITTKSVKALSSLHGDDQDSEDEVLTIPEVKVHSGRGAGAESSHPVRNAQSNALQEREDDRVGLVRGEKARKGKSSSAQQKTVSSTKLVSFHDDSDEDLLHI

| Kuptake [1] [nM] | Kuptake [2] [nM] | IC50 [3] | Binder |
| --- | --- | --- | --- |
| 5.4 | 7 to 9 | 0.27 nM and 0.23 nM | Naglu-(GGGGS)4GGGPS-IGF-II (SEQ ID NO: 568) (enzyme, The construct encodes full-length Naglu 1-743 with its signal peptide; also called Naglu fusion protein; GILT-tagged Naglu-IGF-II fusion protein) DEAREAAAVRALVARLLGPGPAADFSVSVERALAAKPGLDTYSLGGGGAARVRVRGSTGVAAAAGLHRYLRDFCGCHVAWSGSQLRLPRPLPAVPGELTEATPNRYRYYQNVCTQSYSFVWWDWARWEREIDWMALNGINLALAWSGQEAIWQRVYLALGLTQAEINEFFTGPAFLAWGRMGNLHTWDGPLPPSWHIKQLYLQHRVLDQMRSFGMTPVLPAFAGHVPEAVTRVFPQVNVTKMGSWGHFNCSYSCSFLLAPEDPIFPIIGSLFLRELIKEFGTDHIYGADTFNEMQPPSSEPSYLAAATTAVYEAMTAVDTEAVWLLQGWLFQHQPQFWGPAQIRAVLGAVPRGRLLVLDLFAESQPVYTRTASFQGQPFIWCMLHNFGGNHGLFGALEAVNGGPEAARLFPNSTMVGTGMAPEGISQNEVVYSLMAELGWRKDPVPDLAAWVTSFAARRYGVSHPDAGAAWRLLLRSVYNCSGEACRGHNRSPLVRRPSLQMNTSIWYNRSDVFEAWRLLLTSAPSLATSPAFRYDLLDLTRQAVQELVSLYYEEARSAYLSKELASLLRAGGVLAYELLPALDEVLASDSRFLLGSWLEQARAAAVSEAEADFYEQNSRYQLTLWGPEGNILDYANKQLAGLVANYYTPRWRLFLEALVDSVAQGIPFQQHQFDKNVFQLEQAFVLSKQRYPSQPRGDTVDLAKKIFLKYYPRWVAGSWGGGGSGGGGSGGGGSGGGGSGGGPSLCGGELVDTLQFVCGDRGFYFSRPASRVSARSRGIVEECCFRSCDLALLETYCATPAKSE |
| 6.3 |  | 0.36 nM | Naglu-(GGGGA)4GGGPS-IGF-II (SEQ ID NO: 569) (enzyme, also called Naglu fusion protein) DEAREAAAVRALVARLLGPGPAADFSVSVERALAAKPGLDTYSLGGGGAARVRVRGSTGVAAAAGLHRYLRDFCGCHVAWSGSQLRLPRPLPAVPGELTEATPNRYRYYQNVCTQSYSFVWWDWARWEREIDWMALNGINLALAWSGQEAIWQRVYLALGLTQAEINEFFTGPAFLAWGRMGNLHTWDGPLPPSWHIKQLYLQHRVLDQMRSFGMTPVLPAFAGHVPEAVTRVFPQVNVTKMGSWGHFNCSYSCSFLLAPEDPIFPIIGSLFLRELIKEFGTDHIYGADTFNEMQPPSSEPSYLAAATTAVYEAMTAVDTEAVWLLQGWLFQHQPQFWGPAQIRAVLGAVPRGRLLVLDLFAESQPVYTRTASFQGQPFIWCMLHNFGGNHGLFGALEAVNGGPEAARLFPNSTMVGTGMAPEGISQNEVVYSLMAELGWRKDPVPDLAAWVTSFAARRYGVSHPDAGAAWRLLLRSVYNCSGEACRGHNRSPLVRRPSLQMNTSIWYNRSDVFEAWRLLLTSAPSLATSPAFRYDLLDLTRQAVQELVSLYYEEARSAYLSKELASLLRAGGVLAYELLPALDEVLASDSRFLLGSWLEQARAAAVSEAEADFYEQNSRYQLTLWGPEGNILDYANKQLAGLVANYYTPRWRLFLEALVDSVAQGIPFQQHQFDKNVFQLEQAFVLSKQRYPSQPRGDTVDLAKKIFLKYYPRWVAGSWGGGGAGGGGAGGGGAGGGGAGGGPSLCGGELVDTLQFVCGDRGFYFSRPASRVSARSRGIVEECCFRSCDLALLETYCATPAKSE |
| 2.3 |  | 0.25 nM | Naglu-Helical-IGF-II (SEQ ID NO: 567) (enzyme, also called Naglu fusion protein) DEAREAAAVRALVARLLGPGPAADFSVSVERALAAKPGLDTYSLGGGGAARVRVRGSTGVAAAAGLHRYLRDFCGCHVAWSGSQLRLPRPLPAVPGELTEATPNRYRYYQNVCTQSYSFVWWDWARWEREIDWMALNGINLALAWSGQEAIWQRVYLALGLTQAEINEFFTGPAFLAWGRMGNLHTWDGPLPPSWHIKQLYLQHRVLDQMRSFGMTPVLPAFAGHVPEAVTRVFPQVNVTKMGSWGHFNCSYSCSFLLAPEDPIFPIIGSLFLRELIKEFGTDHIYGADTFNEMQPPSSEPSYLAAATTAVYEAMTAVDTEAVWLLQGWLFQHQPQFWGPAQIRAVLGAVPRGRLLVLDLFAESQPVYTRTASFQGQPFIWCMLHNFGGNHGLFGALEAVNGGPEAARLFPNSTMVGTGMAPEGISQNEVVYSLMAELGWRKDPVPDLAAWVTSFAARRYGVSHPDAGAAWRLLLRSVYNCSGEACRGHNRSPLVRRPSLQMNTSIWYNRSDVFEAWRLLLTSAPSLATSPAFRYDLLDLTRQAVQELVSLYYEEARSAYLSKELASLLRAGGVLAYELLPALDEVLASDSRFLLGSWLEQARAAAVSEAEADFYEQNSRYQLTLWGPEGNILDYANKQLAGLVANYYTPRWRLFLEALVDSVAQGIPFQQHQFDKNVFQLEQAFVLSKQRYPSQPRGDTVDLAKKIFLKYYPRWVAGSWGAPGGGSPAEAAAKEAAAKEAAAKEAAAKEAAAKAPSGGGGAPLCGGELVDTLQFVCGDRGFYFSRPASRVSARSRGIVEECCFRSCDLALLETYCATPAKSE |
| 2.4 |  | 0.23 nM | Naglu-Rigid-IGF-II (SEQ ID NO: 566) (enzyme, also called Naglu fusion protein) DEAREAAAVRALVARLLGPGPAADFSVSVERALAAKPGLDTYSLGGGGAARVRVRGSTGVAAAAGLHRYLRDFCGCHVAWSGSQLRLPRPLPAVPGELTEATPNRYRYYQNVCTQSYSFVWWDWARWEREIDWMALNGINLALAWSGQEAIWQRVYLALGLTQAEINEFFTGPAFLAWGRMGNLHTWDGPLPPSWHIKQLYLQHRVLDQMRSFGMTPVLPAFAGHVPEAVTRVFPQVNVTKMGSWGHFNCSYSCSFLLAPEDPIFPIIGSLFLRELIKEFGTDHIYGADTFNEMQPPSSEPSYLAAATTAVYEAMTAVDTEAVWLLQGWLFQHQPQFWGPAQIRAVLGAVPRGRLLVLDLFAESQPVYTRTASFQGQPFIWCMLHNFGGNHGLFGALEAVNGGPEAARLFPNSTMVGTGMAPEGISQNEVVYSLMAELGWRKDPVPDLAAWVTSFAARRYGVSHPDAGAAWRLLLRSVYNCSGEACRGHNRSPLVRRPSLQMNTSIWYNRSDVFEAWRLLLTSAPSLATSPAFRYDLLDLTRQAVQELVSLYYEEARSAYLSKELASLLRAGGVLAYELLPALDEVLASDSRFLLGSWLEQARAAAVSEAEADFYEQNSRYQLTLWGPEGNILDYANKQLAGLVANYYTPRWRLFLEALVDSVAQGIPFQQHQFDKNVFQLEQAFVLSKQRYPSQPRGDTVDLAKKIFLKYYPRWVAGSWGAPGGGSPAPAPTPAPAPTPAPAGGGPSGAPLCGGELVDTLQFVCGDRGFYFSRPASRVSARSRGIVEECCFRSCDLALLETYCATPAKSE |
| 3.7 |  | 0.24 nM | Naglu-XTEN-IGF-II (SEQ ID NO: 565) (enzyme, also called Naglu fusion protein) DEAREAAAVRALVARLLGPGPAADFSVSVERALAAKPGLDTYSLGGGGAARVRVRGSTGVAAAAGLHRYLRDFCGCHVAWSGSQLRLPRPLPAVPGELTEATPNRYRYYQNVCTQSYSFVWWDWARWEREIDWMALNGINLALAWSGQEAIWQRVYLALGLTQAEINEFFTGPAFLAWGRMGNLHTWDGPLPPSWHIKQLYLQHRVLDQMRSFGMTPVLPAFAGHVPEAVTRVFPQVNVTKMGSWGHFNCSYSCSFLLAPEDPIFPIIGSLFLRELIKEFGTDHIYGADTFNEMQPPSSEPSYLAAATTAVYEAMTAVDTEAVWLLQGWLFQHQPQFWGPAQIRAVLGAVPRGRLLVLDLFAESQPVYTRTASFQGQPFIWCMLHNFGGNHGLFGALEAVNGGPEAARLFPNSTMVGTGMAPEGISQNEVVYSLMAELGWRKDPVPDLAAWVTSFAARRYGVSHPDAGAAWRLLLRSVYNCSGEACRGHNRSPLVRRPSLQMNTSIWYNRSDVFEAWRLLLTSAPSLATSPAFRYDLLDLTRQAVQELVSLYYEEARSAYLSKELASLLRAGGVLAYELLPALDEVLASDSRFLLGSWLEQARAAAVSEAEADFYEQNSRYQLTLWGPEGNILDYANKQLAGLVANYYTPRWRLFLEALVDSVAQGIPFQQHQFDKNVFQLEQAFVLSKQRYPSQPRGDTVDLAKKIFLKYYPRWVAGSWGAPGGSPAGSPTSTEEGTSESATPESGPGTSTEPSEGSAPGSPAGSPTSTGPSGAPLCGGELVDTLQFVCGDRGFYFSRPASRVSARSRGIVEECCFRSCDLALLETYCATPAKSE |
